This is an account of results in US20120282637A1 (Sanofi, published 2012).

B1: 173 RAGE-1 (antibody, V domains shown)
VH: EVKLEESGGGLVQPGGSMKLSCVASGFTFSNYWMNWVRQSPEKGLEWVAEIRLKSNNYATHYAESVKGRFTISRDDSKSSVYLQMNDLRAEDPGIYYCIRDYGNYAMDHWGQGTSVTVSS
VL: DIVMTQSQKFMSTSVGDRVSVTCKASQNVGTNVAWYQQKPGQSPKALIYSASYRYSGVPDRFTGSGSGTDFTLTISNVQSEDLAEYFCQQYNSYPLTFGAGTKLELK
notes: Anti-RAGE monoclonal antibody from a hybridoma, captured by anti-mouse Fc; also called LP08107
B2: 250 RAGE-1 (antibody, V domains shown)
VH: B1 VH with D87N, P93T, Y97F, H109Y
VL: B1 VL with Y86F
notes: Anti-RAGE monoclonal antibody from a hybridoma, captured by anti-mouse Fc; also called Protein 250 RAGE-1
B3: 210 RAGE-1 (antibody, V domains shown)
VH: EIQLQQTGPELVKPGASVKISCKASGYSFTDYIMVWVKQSHGKSLEWIGTINPYYGSTSYNLKFKGKATLTVDKSSSTANMQLNSLTSEDSAVYYCARLRLYAMDYWGQGTSVTVSS
VL: QAVVTQESALTTSPGETVTLTCRSSTGAVTTSNYANWVQEKPDHLFTGLIGGTNNRAPGVPARFSGSLIGDKAALTITGAQTEDEAIYFCALWYSNHFWVFGGGTKLTVL
notes: Anti-RAGE monoclonal antibody from a hybridoma, captured by anti-mouse Fc; also called Protein 210 RAGE-1
B4: 183 RAGE-1 (antibody, V domains shown)
VH: EVQLQQSGTVLARPGASVKMSCKASGYSFTSYWMHWVKQRPGQGLEWIGAIFPGNSDTTYNQKFKGKAKLTAVTSASTAYMELSSLTNEDSAVYYCTGLRRGFPYWGQGTLVTVSV
VL: NIVMTQSPKSMSMSVGERVTLSCKASENVGTYVSWYQQKPEQSPKLLIYGASNRYTGVPDRFTGSGSATDFTLTISSVQAEDLADYHCGQSYSYPYTFGGGTKLEIK
notes: Anti-RAGE monoclonal antibody from a hybridoma, captured by anti-mouse Fc; also called Protein 183 RAGE-1
B5: 130 RAGE-1 (antibody, V domains shown)
VH: EVQLVESGGGLVKPGGSLKLSCAASGFTFSSYVMSWVRQSPEKRLEWVAEISSGGSYTYYPDTVTGRFTISRDNDKNTLYLEMSSLRSEDTAMYYCARPPYGKDAMDYWGQGTSVTVSS
VL: QIVLTQSPAIMSASPGEKVTMTCSASSSVSYMHWYQQKSGTSPKRWISDTSKLASGVPARFSGSGSGTSYSLTISSMEAEDAATYYCQQWSSNPPTFGGGTKLEIK
notes: Anti-RAGE monoclonal antibody from a hybridoma, captured by anti-mouse Fc; also called Protein 130 RAGE-1
B6: 259 RAGE-1 (antibody, V domains shown)
VH: QVQLQQSGAELVRPGTSVKVSCKASGYAFTNYLIDWVNQRPGQGLEWIGVINPGSGGTNYNEKFTGKATLTADKSSSTAYMQLSSLTSDDSAVYFCARRRVDTMDYWGQGTSVTVSS
VL: QAVVTQESALTTSPGETVTLTCRSSTGAVTTSNYANWVQEKPDHLFTGLIGGTNNRAPGVPARFSGSLIGDKAALTITGAQTEDEAIYFCALWYSNHWVFGGGTKLTVL
notes: Anti-RAGE monoclonal antibody from a hybridoma, captured by anti-mouse Fc; also called Protein 259 RAGE -1
B7: 283 RAGE-1 (antibody, V domains shown)
VH: QVQLQQSGAELVRPGTSVKVSCKASGYAFTNYLIEWVKQRPGQGLEWIGVINPGSGGTNYSERFKGKATLTADKSSSTAYMQLSSLTSDDSAVYFCASYRYDGGMDYWGQGTSVTVSS
VL: B6 VL with G51R
notes: Anti-RAGE monoclonal antibody from a hybridoma, captured by anti-mouse Fc; also called Protein 283 RAGE-1
B8: 529 RAGE-1 (antibody, V domains shown)
VH: EIQLQQTGPELVKPGASVKISCKASGYSFTDYIMLWVKQSHGKSLEWIGNINPYYGSTFYNLKFKGKATLTVDKSSSTAYMQLNSLTSEDSAVYYCARSDYWYFDVWGAGTTVTVSS
VL: B6 VL with A57S, W98L
notes: Anti-RAGE monoclonal antibody from a hybridoma, captured by anti-mouse Fc
B9: 501-4 RAGE-1 (antibody, V domains shown)
VH: EVMLVDSGGGLVKPGGSLKLSCAASGFTFRSYAMSWVRQTPEKRLEWVATISSGGSYTYYPDSVRGRFTTSRDNGKNTLYLQMSSLRSEDTAMYYCARHGGNYSAWFTYWGQGTLVTVSA
VL: B6 VL with G59D
notes: as for B8
B10: 95 RAGE-1 (antibody, V domains shown)
VH: QVQLQQPGAELVKPGASVKLSCKASGYTFTSYWMHWVKQRPGQGLEWIGESNPSNGRTNYNEKFKNKATLTVDKSSSTAYMQLSSLTSEDSAVYYCARAPYYGFDYWGQGTTLTVSS
VL: B6 VL with I50T
notes: Anti-RAGE monoclonal antibody from a hybridoma, captured by anti-mouse Fc; also called Protein 95 RAGE-1
B11: 316 RAGE-1 (antibody, V domains shown)
VH: QVQLQQSGPELVRPGASVKMSCKASGYTFTSYWMHWVKQRPGQGLEWIGMIDPSNSETRLNQKFKDKATLNVDKSSNTAYMQLSSLTSEDSAVYYCARNFYGSSLRVWGAGTTVTVSS
VL: DIVLTQSPASLAVSLGQRATISCRASKSVSISGYSYLHWNQQKPGQSPKLLIYLASNLESGVPARFSGSGSGTDFTLNIHPVEEEDAATYYCQHSRELPYTFGGGTKLEIK
notes: Anti-RAGE monoclonal antibody from a hybridoma, captured by anti-mouse Fc; also called Protein 316 RAGE-1
B12: 184 RAGE-1 (antibody, V domains shown)
VH: QVQLQQSGAELVRPGTSVKVSCKASGYAFTNYLIEWVKQRPGQGLEWIGMINPGSGGTNYNEKFKGKATLTADKSSSTAYMQLSSLTSDDSAVYFCARGRGGHYRYFDVWGAGTTVTVSS
VL: B11 VL with I31T, L37M, N40Y, S47P, N57H, T76S, Y100W
notes: Anti-RAGE monoclonal antibody from a hybridoma, captured by anti-mouse Fc; also called Protein 184 RAGE-1
B13: 499 RAGE-1 (antibody, V domains shown)
VH: EVQLQQSGTVLARPGASVKMSCKASGYTFTSYWMHWVKQRPGQGLEWIGAIYPGDSDTYYNQKFKGKAKLTAVTSTSTAYMELSSLTNEDSAVYYCTRNWDYWGQGTTLTVSS
VL: DIVMTQSHKFMSTSVGDRVSITCKASQDVSTAVAWYQQKPGQSPKLLIYSASYRYTGVPDRFTGSGSGTDFTFTISSVQAEDLAVYYCQQHYNTPRTFGGGTKLEIK
notes: Anti-RAGE monoclonal antibody from a hybridoma, captured by anti-mouse Fc; also called Protein 499 RAGE-1
B14: 347 RAGE-1 (antibody, V domains shown)
VH: QVQLQQSGAELAKPGASVKMSCRASGYTFTDYWMHWVKQRPGQGLEWIGFINPSTVYTEYIPKFKDKATLTADKSSSTAYMQLSSLTSEDSAVYYCARSDGGWYFDVWGAGTTVTVSS
VL: DIQMTQSSSYLSVSLGGRVTITCKASDRINYWLAWYQQKPGNAPRLLISGATTLETGVPSRFSGSGSGKDYTLSITSLQTEDVATYYCQQYWSTPYTFGGGTKLELK
notes: as for B8
B15: 140 RAGE-1 (antibody, V domains shown)
VH: QVQLQQPGAELVKPGASVRLSCKASGYTFTSYWMHWVKQRPGQGLEWIGEINPSNGRTNYNEKFKSKATLTVDKSSSTAYMQLSSLTSEDSAVYYCARDGLGYRPIAMDYWGQGTSVTVSS
VL: QIVLTQSPAIMSASPGEKVTISCSASSSVSYMYWYQQKPGSSPKPWIYRTSNLASGVPARFSGSGSGTSYSLTISSMEAEDAATYYCQQYHSYPPMYTFGGGTKLEIK
notes: Anti-RAGE monoclonal antibody from a hybridoma, captured by anti-mouse Fc; also called Protein 140 RAGE-1

Where a chain is given by its changes, count along the chain named.

What is called Kd is a measure of binding affinity in units of concentration. The term koff denotes the rate constant with which the complex falls apart. Lower therefore signals a long-lived complex. In general, kon refers to a measure of how fast the partners come together.

T2 sequence (Q15109 23-331 limits assumed): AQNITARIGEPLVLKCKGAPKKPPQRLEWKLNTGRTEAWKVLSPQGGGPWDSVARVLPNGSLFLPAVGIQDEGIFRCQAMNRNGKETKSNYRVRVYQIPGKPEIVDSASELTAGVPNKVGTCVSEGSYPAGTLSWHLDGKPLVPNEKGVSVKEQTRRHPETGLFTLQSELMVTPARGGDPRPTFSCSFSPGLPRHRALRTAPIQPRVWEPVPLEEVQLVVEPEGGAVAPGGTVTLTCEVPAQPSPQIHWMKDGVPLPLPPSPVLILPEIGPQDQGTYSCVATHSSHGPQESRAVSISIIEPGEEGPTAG
Sequence of mouse sRAGE (Q62151 23-340 limits assumed): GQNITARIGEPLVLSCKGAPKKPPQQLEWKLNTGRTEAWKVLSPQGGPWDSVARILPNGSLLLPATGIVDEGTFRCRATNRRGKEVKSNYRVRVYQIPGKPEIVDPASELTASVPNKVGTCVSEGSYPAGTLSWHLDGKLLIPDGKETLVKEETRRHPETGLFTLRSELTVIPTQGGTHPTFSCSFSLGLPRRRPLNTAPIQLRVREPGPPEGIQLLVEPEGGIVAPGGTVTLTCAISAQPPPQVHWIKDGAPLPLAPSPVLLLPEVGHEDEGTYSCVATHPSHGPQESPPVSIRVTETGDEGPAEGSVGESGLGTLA
Sequence of rat sRAGE (Q63495 23-341 limits assumed): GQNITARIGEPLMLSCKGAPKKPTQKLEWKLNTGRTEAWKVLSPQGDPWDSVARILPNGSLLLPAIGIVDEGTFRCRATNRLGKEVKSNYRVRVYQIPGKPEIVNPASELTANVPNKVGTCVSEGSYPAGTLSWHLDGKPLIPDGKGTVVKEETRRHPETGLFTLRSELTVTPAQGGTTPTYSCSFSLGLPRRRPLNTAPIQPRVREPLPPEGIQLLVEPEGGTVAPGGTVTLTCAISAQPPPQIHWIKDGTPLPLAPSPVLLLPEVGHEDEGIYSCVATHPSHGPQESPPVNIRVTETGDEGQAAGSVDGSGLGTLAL

The first test deals with T1, RAGE C2 domain (UniProt Q15109 235-327, limits assumed).
T1 construct: domain: C2 domain
T1 sequence (Q15109 235-327 limits assumed): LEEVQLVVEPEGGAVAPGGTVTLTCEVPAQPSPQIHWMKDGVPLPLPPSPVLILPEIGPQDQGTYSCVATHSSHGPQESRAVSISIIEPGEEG
Nature of the test: domain mapping, Table 1.
Take B1: the binding result was “no binding”.

A further test addresses T2, sRAGE (V-C1-C2) lot LP08062 (human, UniProt Q15109 23-331, limits assumed).
T2 construct: domain: V-C1-C2; also called Human RAGE; LP08062 (Rage)
Nature of the test: SPR (Biacore), mAb captured on anti-mouse Fc, sRAGE 15 nM, Langmuir 1:1. The method, then: The assay is based on a capture assay using immobilized anti-mouse Fc IgG on CM5 chip. For immobilization of anti-Fc antibody HBS-EP was used as running buffer. Standard amine coupling to a CM5 chip was carried out at a contact time of 11 min and a flow rate of 10 μl/min. 10 mM Sodium Acetate pH 5.0 was used as immobilization buffer. The protein concentration (anti-mouse Fc, Biacore BR-1008-38) was 100 μg/mL.
For binding analysis SN anti-RAGE mAb diluted in running buffer at 1/10 (flow rate 5 μl/min) and sRAGE (V-C1-C2) lot LP08062 diluted in running buffer at 15 nM (flow rate 50 μl/min) was used as […], respectively (running buffer: HBS-P+BSA 12 mg/mL+CM Dextran 12 mg/mL and Regeneration solution: 10 mM Glycine pH 1.7). Langmuir 1:1 analysis was used as fitting model.
Background: Surface plasmon resonance follows binding to a sensor surface in real time, without labels.
B1 gave a Kd of 0.678 nM, a koff of 0.00227 s⁻¹ and a kon of 3.35e+06 M⁻¹ s⁻¹.

Molecule B2 had a Kd of 0.556 nM, a koff of 0.00199 s⁻¹ and a kon of 3.58e+06 M⁻¹ s⁻¹.

Take B3: binding was characterised by a dissociation constant (Kd) of 0.276 nM, the koff was 0.00107 s⁻¹ and the kon worked out at 3.88e+06 M⁻¹ s⁻¹.

Consider B4, for which the Kd was found to be 1.73 nM, the koff stood at 0.00273 s⁻¹ and the kon stood at 1.58e+06 M⁻¹ s⁻¹.

B5 had a Kd of 0.236 nM, a koff of 0.00136 s⁻¹ and a kon of 5.76e+06 M⁻¹ s⁻¹.

Regarding B6, the Kd amounted to 0.516 nM, the koff is 0.00224 s⁻¹ and the kon is 4.34e+06 M⁻¹ s⁻¹.

B7 yielded a Kd of 0.371 nM, a koff of 0.00196 s⁻¹ and a kon of 5.29e+06 M⁻¹ s⁻¹.

Molecule B8 registered a Kd of 0.552 nM, a koff of 0.00169 s⁻¹ and a kon of 3.06e+06 M⁻¹ s⁻¹.

As to B9, the Kd amounted to 0.0858 nM, the koff was determined as 0.000103 s⁻¹ and the kon stood at 1.2e+06 M⁻¹ s⁻¹.

On to B10, for which binding was put at a Kd of 0.462 nM, the koff is 0.00123 s⁻¹ and the kon is 2.66e+06 M⁻¹ s⁻¹.

As for B11, the Kd is 0.319 nM, the koff was determined as 0.00177 s⁻¹ and the kon was 5.54e+06 M⁻¹ s⁻¹.

In the case of B12, the affinity, expressed as Kd, was 0.595 nM; the koff worked out at 0.00163 s⁻¹; the kon was found to be 2.74e+06 M⁻¹ s⁻¹.

Molecule B13 registered a Kd of 0.793 nM, a koff of 0.00157 s⁻¹ and a kon of 1.98e+06 M⁻¹ s⁻¹.

In the case of B14, the Kd was found to be 0.666 nM, the koff was 0.00227 s⁻¹ and the kon is 3.41e+06 M⁻¹ s⁻¹.

On to B15, for which the Kd was 0.303 nM, the koff came out at 0.00157 s⁻¹ and the kon came to 5.19e+06 M⁻¹ s⁻¹.

The next test has as its target rat sRAGE (rat, UniProt Q63495 23-341, limits assumed). Nature of the test: ELISA, O.D. 450 nm, one bar per species; plate format and antibody concentration not given. (In general: ELISA stands for enzyme-linked immunosorbent assay.)
For the molecule B1, the binding result is “no binding (tested: not given)”.

With B2, the binding result is listed as “no binding (tested: not given)”.

In the case of B5, the binding result is “no binding (tested: not given)”.

Take B11: the binding result is “no binding (tested: not given)”.

As for B14, the binding result is listed as “no binding (tested: not given)”.

Another test addresses mouse sRAGE (mouse, UniProt Q62151 23-340, limits assumed). Described as above.
Take B1: the binding result is on record as “no binding (tested: not given)”.

With B2, the binding result is on record as “no binding (tested: not given)”.

For the molecule B5, the binding result was “no binding (tested: not given)”.

With B11, the binding result is listed as “no binding (tested: not given)”.

For the molecule B14, the binding result was “no binding (tested: not given)”.
